# Assays:
# SARS-CoV-2 S2抗原 (重组) = biological target: T1, SARS-CoV-2 S2抗原 (重组) (SARS-CoV-2, UniProt P0DTC2 686-1213); test: ELISA, coated S2 antigen 2 μg/mL
# T1 construct: domain: S2
# SARS-CoV-2 RBD抗原 (重组) = biological target: T2, SARS-CoV-2 RBD抗原 (重组) (SARS-CoV-2, UniProt P0DTC2 319-541); test: ELISA, coated RBD antigen 2 μg/mL
# T2 construct: domain: RBD
# [1] = biological target: T3, SARS-CoV-2 刺突糖蛋白S (重组S抗原) (SARS-CoV-2, UniProt P0DTC2 16-1213); test: ELISA, coated S antigen 2 μg/mL, HRP anti-human Fc
# [2] = biological target: T3, SARS-CoV-2 刺突糖蛋白S (重组S抗原); test: BLI (Fortebio Octet QKe), 4A8 captured on AHC sensors, S protein as analyte
binder,measurement,setting,value
"抗SARS-CoV-2全人源单克隆抗体4A8 (antibody, V domains shown, also called 单抗4A8) VH: EVQLVESGAEVKKPGASVKVSCKVSGYTLTELSMHWVRQAPGKGLEWMGGFDPEDGETMYAQKFQGRVTMTEDTSTDTAYMELSSLRSEDTAVYYCATSTAVAGTPDLFDYYYGMDVWGQGTTVTVSS VL: EIVMTQSPLSSPVTLGQPASISCRSSQSLVHSDGNTYLSWLQQRPGQPPRLLIYKISNRFSGVPDRFSGSGAGTDFTLKISRVEAEDVGVYYCTQATQFPYTFGQGTKVDIK",binding result,SARS-CoV-2 S2抗原 (重组),no binding (tested: 首孔9ug/ml)
same,binding result,SARS-CoV-2 RBD抗原 (重组),no binding (tested: 首孔9ug/ml)
same,EC50,[1],4.6 ng/mL
same,Kd,[2],1 nM
same,koff,[2],7.77e-05 s⁻¹
same,kon,[2],77500 M⁻¹ s⁻¹

# — patent CN111303280A (INST MILITARY MEDICINE ACADEMY MILITARY SCIENCES PLA, dated 2020)
